US20180105585A1
Residue numbers refer to the chain shown, from its start. Each block holds one binder with its values, some of them ahead of it.

Tests used:
[1] = target: Biotinylated human Amyloid beta 1-42 peptide (human); test: HTRF epitope competition, purified scFv against Abet0042 IgG (competitor) for biotinylated human Amyloid beta 1-42
[2] = target: Biotinylated human Amyloid beta 1-42 peptide (human); test: SPR (BIAcore T-100), biotinylated peptide on SA chip, scFv 12.5-400 nM, 1:1 Langmuir

Sequence of Biotinylated human Amyloid beta 1-42 peptide (human) (peptide, as listed by the source): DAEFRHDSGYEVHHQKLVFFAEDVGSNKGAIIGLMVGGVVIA

IC50 [1]: 159 nM
B1: Abet0007 scFv (scFv, part only; not given: Linker, tags and domain order, V domains shown, not shown: another chain or arm of the molecule; small tags and cut ends)
VH: EVQLLESGGGLVQPGGSLRLSCAASGFTFSVYTMWWVRQAPGKGLEWVSVIGSSGGTTVYADSVKGRFTISRDNSKNTLYLQMNSLRAEDTAVYYCAREGQQLVRPYYYYGMDVWGQGTLVTVSS
VL: QSVLTQPPSVSVSPGQTASITCSGHNLEDKFASWYQQKSGQSPVLVIYRDDKRPSGIPERFSASNSGHTATLTISGTQATDEADYYCQAQDSTTRVFGGGTKLTVL

Kd [2]: 33.2 nM | koff [2]: 0.00666 s⁻¹ | kon [2]: 201000 M⁻¹ s⁻¹ | IC50 [1]: 5.5 nM
B2: Abet0144 scFv (scFv, part only; not given: Linker, tags and domain order, V domains shown, not shown: another chain or arm of the molecule; small tags and cut ends)
VH: B1 VH with G100W, Q101M, Q102D, L103H, V104S
VL: B1 VL
